Values quoted from earlier work as cited in PMC11949069.

Target: IL-18BPa (Homo sapiens) (UniProt O95998)
Sequence (O95998 31-194): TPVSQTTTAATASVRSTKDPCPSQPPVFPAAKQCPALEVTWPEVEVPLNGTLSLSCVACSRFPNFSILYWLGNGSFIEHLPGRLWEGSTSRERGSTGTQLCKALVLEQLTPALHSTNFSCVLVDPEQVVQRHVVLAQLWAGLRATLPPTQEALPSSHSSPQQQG

Chain of IL-18 (Q14116 37-193): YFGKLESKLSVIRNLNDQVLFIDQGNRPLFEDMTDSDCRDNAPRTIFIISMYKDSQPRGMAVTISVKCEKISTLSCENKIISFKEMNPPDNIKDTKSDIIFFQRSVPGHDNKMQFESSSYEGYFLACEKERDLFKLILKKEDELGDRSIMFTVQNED

## IL-18 (from UniProt Q14116)
  Kd: 400 pM
